Measurements as given in the nanobody polyreactivity screen of Harvey et al. (2022).

experiment: yeast display, Sf9 membrane polyspecificity reagent, FACS + sequencing; frameworks hold sequencing errors
In short: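 Galactose-induced (36–48 hours) yeast carrying a synthetic nanobody display library were exposed to 10% biotinylated, detergent-solubilized Sf9 membrane reagent at 4 °C for 1 hour. FACS followed streptavidin microbead enrichment, using low and high (top ~1%) gates for expression (anti-HA) and reagent binding (streptavidin). Colony PCR, MiSeq 2 × 250 sequencing and CDR-length filtering followed. Labels for polyreactivity reflect the gate of origin.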

| Sequence | polyreactivity (PSR sort gate) |
| --- | --- |
| QVQLVESGGRLVQAGGTLRLSCAASGRIFGYNAMGWYRQAPGKERHLVAVITSGGSKNYADSVKGRFTISRDNAKHTVYLQMNSVKPEDTAVYYCPRRIWDRWSYPVRVRYYYWGQGTQVTGSS | high polyreactivity |
| QVQLVESGGGLVQAGGSLRLICAASGITFYYYAMGWYRQAPGKERELVAAISTRSGSTYYADSVKGRFTISRDNAKNTVYLEMNSLKPEDTAVYYCAARYRSAGHRYDYWGQGTQVTVSS | high polyreactivity |
| QVQLVESGGGLVQAGGSLRLSCAASGRTFHWYTLGWYRQAPGKEREFVAGINWSGARTYYADSVKGRFTISRDNAKNTVYLQMNSLKPEDTAVYYCNKRDRYRLYGYNYWGQGTQVTVSS | high polyreactivity |
| QVQLVESGGGLVQAGGSLRLSCAASGFTFERYTMGWYIQAPGKERELVATISRRSGRTSYADSVKGRFTISRDNAKNTVYLQMNSLKPEDTEVYYCAVDYAYPDRYDYWGQGTQVTVSS | high polyreactivity |
| QVQLVESGGGLVQAGGSLRLSCAASGSIFGRYVMGWYRQAPGKERELVAAINWSGSRTYYADSVKGRFTISRDNAKNTVYLQMNSLKPEDTAVYYCAADWWSRYYYWGQGTQVTVSS | high polyreactivity |
| QVQLVESGGGLVQAGGSLRLSCAASGIILPYYVMGWYRQAPGKERELVAAISSGGRTYYADSVKGRFTISRDNAKNTVYLQMNSLKPEDTAVYYCNAYFTGKWYDYWGQGTQVTVSS | high polyreactivity |
| QVQLVESGGGLVQAGGSLRLSCAASGSTFVGNAMGWYRQAPGKERELVANITSGGSTNYADSVKGRFTISRDNAKNTVYLQMNSLKPEDTAVYYCAAVYLWSQRREYWGQGTQVTVSS | low polyreactivity |
| QVQLVESGGGLVQAGGSLRLSSAASGSIFRSNAMGWYRQAPGKERELVAAIDYSGTSTTYADSVKGRFTISRDNAKNTVYLQMNRLKPEDTAVYYCNADGYYRGYWSGYEYWGQGTQVTVSS | low polyreactivity |
| QVQLVESGGGLVQAGGSLRLSCAASGSIFDDYAMGWYRQAPGKERELVAAISWSGGRTYYADSVKGRFTISRDNAKNTVYLQMNSLKPEDTAVYYCAATTGVRSRRYYYWGQGTQVTVSS | low polyreactivity |
| QVQLVESGGGLVQAGGSLRLSCAASGSTFYYYARGWYRQAPGKERELVAAIDRDDRTNYADSVKGRFTISRDNAKNTVYLQMNSLKAEDTAVYYCAAVEIYEYDYWGQGTQVTVSS | low polyreactivity |
| QVQLVESGGGLVQAGGSLRLSCAASGRIYYYYTMGWYRQAPGKERELVAGISRSGDRTYYADSVKGRFTISRDIAKNTVYLQMNSLKPEDTAVYYCATRWSSARMDYWGQGTQVTVSS | high polyreactivity |
| QVQLVESGGGLVQAGGSLRLSCAASGSIFWQTPMGWYRQAPGKERELVAAITRSGGSTYYADSVKGRFTISRDNAKITVYLQMNSLKPEDTLVYYCKKYGYKGGVGDDYWGQGTQVTVSS | high polyreactivity |
| QVQLVESGGGLVQAGGSLRLSCAASGRIFDKYTMGWYRQAPGKERELVATMTRGGVSTYYADSVKGRFTISRDNAKNTVYLQMNSLKPEDTAVYYCNAVWRLRVRYGYWGQGTHVTVSS | high polyreactivity |
| QVQLVESGAGLVQAGGSLRLSCASSGYIFDWYAMGWYRQAHGKERELGAAISGRGGSTYYADSVKGRFTISRDNSKNTVYLQMYSLKPEYTAVYYCNAALSPWGYNYWGQGTQVTVSS | high polyreactivity |
| QVQLVESVGCLVQAGGSLRLICAASGSIFVDYAMGWYRQAPGKERELVAAISSGGGSTYYADSVKGRFTISRDNSKYTVYLQMNSLKPEDTAVYYCATDLQPRSFLYWYNYWGQGTQVTVSS | low polyreactivity |
| QVQLVESGGGLVQAGGSLRLSCAASGNTFIYYGMGWYRQAPGKERELVAAITWSGGSTYYADSVKGRFTISRDNAKNTVYLQMNSLKPEETAVYYCAKFTHNYYYWGQGTQVTVSS | high polyreactivity |
| QVQLVESGGGLVQAGGSHRLSCDASGRTFYRNAMGWYRQAPGKERELVAGISSRGGSTYYADSVKGRFTISRDNAKNTVYLQMISLKPEDTAVYYCAATSSPYSIYNSWGQGTQVTVSS | high polyreactivity |
| QVQLVESGGGLVQAGGSLRLSCAASGSTLDKYAMGWYRQAPGKERELVAAISSSGGSTYYADSVKGRFTISRDNAKNTVYLQMNSLKPEDTAVYYCAARFFRGRYLDDYWGQGTQVTVSS | high polyreactivity |
| QVQLVESGGGLVQAGGSLRLSCAASGRTFQYYAMGWYRQAPGKERELVAAITSGGSTYYADSVKGRFTISRDNAKNTVYLQMNSLKPEDTAVYYCAATFYYSGHDDYWGQGTQVTVSS | low polyreactivity |
| QVQLVESGGGLVQAGGSLRLSCAASGFIFRSYAMGWYRQAPGKERELVAGISYRGGSTYYADSVKGRFTISRDNAKNTVYLQMNSLKPEDTAVYYCAATAWYNWYFGLDYWGQGTQVTVSS | high polyreactivity |
| QVQLVESGGGLVQAGGSLRLSCAASGLIFRYYAMGWYRQAPGKERELVAVINYSGGRTYYADSVKGRFTISRDNAKNTVYLQMNSLKPEDTAVYYCAASFASKYEYWGQGTQVTVSS | high polyreactivity |
| QVQLVESGGGLVQAGGSLRLSCAASGLIFWYSAMGWYRQAPGKERELVAAISSGGSTNYADSVKGRFTISRDNAKNTVYLQMNSLKPEDTAVYYCNVYTYRFHTARQAVDYWGQGTQVTVSS | low polyreactivity |

| Sequence | polyreactivity (PSR sort gate) |
| --- | --- |
| QVQLVESGGGLVQAGGSLRLSCAASGSIFDPNAMGWYRQAPGKERELVANITNGGRTNYADSVKGRFTISRDNAKNTVYLQMNSLKPEDTAVYYCAKDSPFTSVTVLAPIIYDSWGQGTQVTVSS | low polyreactivity |
| QVQLVESGGGLVQAGGSLRLSCAASGSIFVDYVMVWYRQAPGKERELVAAISGNGGRTYYADSVKGRFTISRDNAKNTVYLQMNSLKPEDTAVYYCAKVRSVTIGRDYWGQGTQVTVSS | high polyreactivity |
| QVQLVESGGGLVQAGGSLRLSCAASGFAFSYYAMGWYRQAPGKEREFVASIDWSGGSTYYADSVKGRFTISRDIAKTTVYLQMNRLKPEDTAVYYCAAELDYFPGYDYWGQGTQVTVSS | low polyreactivity |
| QVQLVESGGGLVQAGGSLRLSCASSGSTFKYYAMGWYRQAPGKERELVAAISSGGSTYYADSVKGRFTISRDNAKNTVYLLMNSLKPEDTAVYDCAARGYYGNFSGSGYWGQGTQVTVSS | high polyreactivity |
| QVQLVESGGGLVQAGGSLRLSCAASGLIFYTYAMGWYRQAPGKERELVATISGRGGSTYYADSVKGRFTISRDNAKNTVYLQMNSLKPEDTAVYYCNVVPSTYYQYDYWGQGTQVTVSS | high polyreactivity |
| QVQLVESGGGLVQAGGSLRLSCAASGRTFSTYAMGWYRQATGKERELVAAIRSGGSTYYADSVKGRFTISRDNAKNTVYLQMNSLKPEDTAVYYCNALPRPSIFRYDYWGQGTQVTVSS | high polyreactivity |
| QVQLVESGGGLVQAGGSLRLSCAASGYTIYSYAMGWYRQAPGKERELVAAITESGARTYYADSVKGRFTISRDNAKNTVYLLMNSLKPEDSAVYYCAADYAWPLRVTGDYWGQGTQVTVSS | low polyreactivity |
| QVQLVESGGGLVQAGGSLRLSCAASGSIFSWNAMGWYRQAPGKERELVAAITSGGSTYYADSVKGRFTISRDNAKNTVYLQMNSLKPEDTAVYYCGWTYHYHRESWGQGTQVTVSS | low polyreactivity |
| QVQLVESGGGLVQAGGSLRLSCAASGRTFGYYAMGWYRQATGKERELVAAISWSDSGTYYADSVKGRFTISRDNAKNTVYLQMNSLKPEDTAVYYCAKDEPYFVFRDTYDYWGQGTQVTVSS | high polyreactivity |
| QVQLVESGGGLVQAGGSLRLSCAASGGTFYRYAMGWYRQAPGKERELVAAISSNGGSTYYADSVKGRFTISRDNAKNTVYLQMNSLKPEDTAVYYCAAARDSIVYGQYDYWGQGTQVTVSS | low polyreactivity |
| QVQLVESGGGLVQAGGSLRLSCAASGIIFQYYAMGWYRQAPGKERELVAAINSGTTTYYADSVKGRFTITRDNAKNTVYLQMNSLKPEDTAVYYWNKDWHSQDFSAYNSYDYWGQGTQVTVSS | low polyreactivity |
| QVQLVESGGGLVQAGGRLRLSCAASGFTFVRNTMGWYRQAPGKDRELVAAISRSGGSTYYADSVKGRFTISRDNAKNTVYLQMNSLKPEDTAVYYCNAYRYLHYDWGQGTQVTVSS | high polyreactivity |
| QVQLVESGGGLVQAGGSLRLSCAASGLIYSAYAMGWYRQAPGKEREFVAAISRSGGITFYADSVKGRFTISRDNAKNTVYLQMNSLKPEDTAVYYCAARRSKYRRGGGYYWGQGTQVTVSS | high polyreactivity |
| QVQLVESGGGLVQAGGSLRLSCAASGRTIPWNVMGWYRQAPGKERELVATITSRRTSTNYADSVKARFTISRDNAKNTVYLPMNSLKPEDTAVYYCARRTVWGAGHYYYWGQGTQVTVSS | high polyreactivity |
| QVQLVESGGGLVQAGGSLRLSCAASGSIFGGYAMGWYRQAPGKERELVAAISSGGSTYYADSVKGRFTISRDNAKNTVYLQMNSLKPEDTAVYYCATSTYAYRRNSYDYTRPRFGYWGQGTQVTVSS | high polyreactivity |
| QVQLVESGGGLVQAGGSLRLSCAASGSIFTEYAMGWYRQAPGKERELVADINSGDITYYADSVKGRFTISRDNAKNTVYLQMNSLKPEDTAVYYCATGWYYTSSTYRSSDFDYWGQGTQVTVSS | low polyreactivity |
| QVQLVESGVGLVQAGGSLRLSCAASGSIFHIYAMGWYRQAPGKERELVAAMTYADSVKGRFTISRVNAKNTVYLQMNSLKPEDTAVYECNADNWPRIHGSAYDYWGQGTQVTVSS | low polyreactivity |
| QVQLVESAGGLVQAGGSLRLSCAASGITFNDNAMGGYRQAPGKERELVAAINSGNGTDYEDSVKGRFTISRDNAKNTVYLQMNSLKPEDTAVYYCATEGYVQGDLGYLYTRYAFYYWGQGTQVTVSS | low polyreactivity |
| QVQLVESGGGVVQAGGSLRLSCAASGFTFVYNAMGWYRQAPGKEREFVAAISGRGGSTYYADSVKGRFTISRDNAKNTVYLQMNSLKPEDTAVYYCATTYSWYYVPYKTHIYYYWGQGTQVTVSS | low polyreactivity |
| QVQLEESGGVLVQAGGSLRLSCAASGRIFVWYAMGWYRQAPGKERELVAAISSADSTNYADSVKGRFTISRDNAKNTVYLQMNSLKPEDTAVYYCNAEGWPGNVVYGYYYWGQGTQVTVSS | low polyreactivity |
| QVQLVESGGGLVQAGGSLRLSCAASGLIFKFYPMGWYRQAPGKERELVASIRGSGDNTYYADSVKGRFTISRDNAKNTVYLQMNSLKPEDTAVYYCNARASYSWHGIRGKYDYWGQGTQVTVSS | high polyreactivity |
